Test results: publication PMC8943035

Biological target: muscle RAS oncogene homolog (MRAS) fused to mCherry, expressed from pmCherry-MRAS (UniProt O14807)
Test: FRET or BRET; FRET between GFP (donor, excited at 488 nm) and mCherry (acceptor, emission 610 nm) fusion proteins, imaged in MCF-7 cells

- FRET efficiency: 11%
Substance: G-protein gamma subunit 2 (GNG2) fused to EGFP, expressed from pEGFP-GNG2 (from UniProt P59768 1-71) (natural protein)
